Test results published in paper PMC13397619.

B1: NLV3 TCR beta chain (CDR3β only) (parent)
chain: ASSPTGGSPSPLH

Variants of: B1
Assay: T-Switch: Jurkat TCRβ−/− cells expressing a CDR3 saturation-mutagenesis library, stained with two peptide-HLA-A*02:01 tetramers (original and novel peptide) plus anti-CD3, FACS-sorted into four gates, gDNA sequenced
Details: tetramers 1 µg/mL, 30 min on ice, SP, DP and SW gates expanded about 10 days between rounds ('two to three rounds of selection' in the Methods), unresolved parent, parent is a CDR3 fragment, scale: fold enrichment, numbering: sequential-on-construct, sequence starts at 1
[1] = with both tetramers (double-negative gate, binds neither): HLA-A*02:01 with … and with …, gate DN: OPPOSITE: higher = more of the variant in the gate that binds neither peptide = LESS binding (or no expression; inferred). Fold enrichment of the CDR3 variant in one FACS gate of a two-tetram
[2] = with both tetramers (double-positive gate): HLA-A*02:01 with … and with …, gate DP: higher = more of the variant in the gate that binds both peptides. Fold enrichment of the CDR3 variant in one FACS gate of a two-tetramer stain. SP/DP/SW gates were expanded and re-sorted bef

Variant	enrichment [1]	enrichment [2]
[…] (CDR3 as printed); S3M derived by comparing it with the table's wild-type CDR3 ASSPTGGSPSPLH	0.806	0
[…] (CDR3 as printed); S3N derived by comparing it with the table's wild-type CDR3 ASSPTGGSPSPLH	0.483	0
[…] (CDR3 as printed); S3P derived by comparing it with the table's wild-type CDR3 ASSPTGGSPSPLH	0.64	0
[…] (CDR3 as printed); S3Q derived by comparing it with the table's wild-type CDR3 ASSPTGGSPSPLH	1.09	0
[…] (CDR3 as printed); S3R derived by comparing it with the table's wild-type CDR3 ASSPTGGSPSPLH	0.964	0
[…] (CDR3 as printed); S3T derived by comparing it with the table's wild-type CDR3 ASSPTGGSPSPLH	0.779	0
[…] (CDR3 as printed); S3V derived by comparing it with the table's wild-type CDR3 ASSPTGGSPSPLH	0.951	0
[…] (CDR3 as printed); S3W derived by comparing it with the table's wild-type CDR3 ASSPTGGSPSPLH	0.749	0
[…] (CDR3 as printed); S3Y derived by comparing it with the table's wild-type CDR3 ASSPTGGSPSPLH	0.895	0
[…] (CDR3 as printed); S8A derived by comparing it with the table's wild-type CDR3 ASSPTGGSPSPLH	0.6	0
[…] (CDR3 as printed); S8C derived by comparing it with the table's wild-type CDR3 ASSPTGGSPSPLH	0.677	0
[…] (CDR3 as printed); S8D derived by comparing it with the table's wild-type CDR3 ASSPTGGSPSPLH	0.969	0
[…] (CDR3 as printed); S8E derived by comparing it with the table's wild-type CDR3 ASSPTGGSPSPLH	1.16	0
[…] (CDR3 as printed); S8F derived by comparing it with the table's wild-type CDR3 ASSPTGGSPSPLH	0.97	0
[…] (CDR3 as printed); S8G derived by comparing it with the table's wild-type CDR3 ASSPTGGSPSPLH	0.725	0
[…] (CDR3 as printed); S8H derived by comparing it with the table's wild-type CDR3 ASSPTGGSPSPLH	0.901	0
[…] (CDR3 as printed); S8I derived by comparing it with the table's wild-type CDR3 ASSPTGGSPSPLH	1.23	0
[…] (CDR3 as printed); S8K derived by comparing it with the table's wild-type CDR3 ASSPTGGSPSPLH	0.743	0
[…] (CDR3 as printed); S8L derived by comparing it with the table's wild-type CDR3 ASSPTGGSPSPLH	1.58	0
[…] (CDR3 as printed); S8M derived by comparing it with the table's wild-type CDR3 ASSPTGGSPSPLH	1.29	0

Variant	enrichment [1]	enrichment [2]
[…] (CDR3 as printed); S8N derived by comparing it with the table's wild-type CDR3 ASSPTGGSPSPLH	1.07	0
[…] (CDR3 as printed); S8P derived by comparing it with the table's wild-type CDR3 ASSPTGGSPSPLH	1.03	0
[…] (CDR3 as printed); S8Q derived by comparing it with the table's wild-type CDR3 ASSPTGGSPSPLH	0.893	0
[…] (CDR3 as printed); S8R derived by comparing it with the table's wild-type CDR3 ASSPTGGSPSPLH	0.977	0
[…] (CDR3 as printed); S8T derived by comparing it with the table's wild-type CDR3 ASSPTGGSPSPLH	1.42	0
[…] (CDR3 as printed); S8V derived by comparing it with the table's wild-type CDR3 ASSPTGGSPSPLH	0.756	0
[…] (CDR3 as printed); S8W derived by comparing it with the table's wild-type CDR3 ASSPTGGSPSPLH	0.85	0
[…] (CDR3 as printed); S8Y derived by comparing it with the table's wild-type CDR3 ASSPTGGSPSPLH	0.351	0
[…] (CDR3 as printed); S10A derived by comparing it with the table's wild-type CDR3 ASSPTGGSPSPLH	0.624	0
[…] (CDR3 as printed); S10C derived by comparing it with the table's wild-type CDR3 ASSPTGGSPSPLH	0.577	0
[…] (CDR3 as printed); S10D derived by comparing it with the table's wild-type CDR3 ASSPTGGSPSPLH	0.754	0
[…] (CDR3 as printed); S10E derived by comparing it with the table's wild-type CDR3 ASSPTGGSPSPLH	1.41	0
[…] (CDR3 as printed); S10F derived by comparing it with the table's wild-type CDR3 ASSPTGGSPSPLH	1.25	0
[…] (CDR3 as printed); S10G derived by comparing it with the table's wild-type CDR3 ASSPTGGSPSPLH	0.33	0
[…] (CDR3 as printed); S10H derived by comparing it with the table's wild-type CDR3 ASSPTGGSPSPLH	0.949	0
[…] (CDR3 as printed); S10I derived by comparing it with the table's wild-type CDR3 ASSPTGGSPSPLH	0.982	0
[…] (CDR3 as printed); S10K derived by comparing it with the table's wild-type CDR3 ASSPTGGSPSPLH	1.05	0
[…] (CDR3 as printed); S10L derived by comparing it with the table's wild-type CDR3 ASSPTGGSPSPLH	0.468	0
[…] (CDR3 as printed); S10M derived by comparing it with the table's wild-type CDR3 ASSPTGGSPSPLH	0.53	0
[…] (CDR3 as printed); S10N derived by comparing it with the table's wild-type CDR3 ASSPTGGSPSPLH	1.13	0

Variant	enrichment [1]	enrichment [2]
[…] (CDR3 as printed); S10P derived by comparing it with the table's wild-type CDR3 ASSPTGGSPSPLH	1.37	0
[…] (CDR3 as printed); S10Q derived by comparing it with the table's wild-type CDR3 ASSPTGGSPSPLH	0.571	0
[…] (CDR3 as printed); S10R derived by comparing it with the table's wild-type CDR3 ASSPTGGSPSPLH	1.17	0
[…] (CDR3 as printed); S10T derived by comparing it with the table's wild-type CDR3 ASSPTGGSPSPLH	1.08	0
[…] (CDR3 as printed); S10V derived by comparing it with the table's wild-type CDR3 ASSPTGGSPSPLH	0.96	0
[…] (CDR3 as printed); S10W derived by comparing it with the table's wild-type CDR3 ASSPTGGSPSPLH	1.12	0
[…] (CDR3 as printed); T5A derived by comparing it with the table's wild-type CDR3 ASSPTGGSPSPLH	0.817	0
[…] (CDR3 as printed); T5C derived by comparing it with the table's wild-type CDR3 ASSPTGGSPSPLH	1.08	0
[…] (CDR3 as printed); T5D derived by comparing it with the table's wild-type CDR3 ASSPTGGSPSPLH	1.06	0
[…] (CDR3 as printed); T5E derived by comparing it with the table's wild-type CDR3 ASSPTGGSPSPLH	0.994	0
[…] (CDR3 as printed); T5F derived by comparing it with the table's wild-type CDR3 ASSPTGGSPSPLH	0.464	0
[…] (CDR3 as printed); T5G derived by comparing it with the table's wild-type CDR3 ASSPTGGSPSPLH	0.828	0
[…] (CDR3 as printed); T5H derived by comparing it with the table's wild-type CDR3 ASSPTGGSPSPLH	0.879	0
[…] (CDR3 as printed); T5I derived by comparing it with the table's wild-type CDR3 ASSPTGGSPSPLH	0.355	0
[…] (CDR3 as printed); T5K derived by comparing it with the table's wild-type CDR3 ASSPTGGSPSPLH	0.965	0
[…] (CDR3 as printed); T5L derived by comparing it with the table's wild-type CDR3 ASSPTGGSPSPLH	0.514	0
[…] (CDR3 as printed); T5M derived by comparing it with the table's wild-type CDR3 ASSPTGGSPSPLH	0.479	0
[…] (CDR3 as printed); T5N derived by comparing it with the table's wild-type CDR3 ASSPTGGSPSPLH	0.924	0
